Data: US20170029474A1
Like-named read-outs stand apart in the source and are kept apart here.

Tests used:
Recombinant HB-EGF [1] = biological target: Recombinant HB-EGF (UniProt Q99075); test: cell-based or functional assay
Recombinant HB-EGF [2] = biological target: Recombinant HB-EGF (UniProt Q99075); test: cell-based or functional assay; remark: listed apart in the source
[3] = biological target: C-terminal His-tagged HB-EGF lacking the heparin-binding domain (UniProt Q99075); test: SPR, Biacore T200, His-tagged HB-EGF captured on NTA chip
Chain of C-terminal His-tagged HB-EGF lacking the heparin-binding domain (Q99075 other isoform, or with tags, fused parts or gaps limits assumed): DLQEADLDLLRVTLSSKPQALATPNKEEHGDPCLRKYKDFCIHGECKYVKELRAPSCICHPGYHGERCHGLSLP

Chain of Recombinant HB-EGF (Q99075 63-148 limits assumed): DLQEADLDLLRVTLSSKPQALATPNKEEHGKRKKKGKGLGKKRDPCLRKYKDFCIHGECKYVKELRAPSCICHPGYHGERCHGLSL

| Substance | DER cell assay ID50 (Recombinant HB-EGF [1]) [nM] | ID50 [nM], HB-EGF-dependent growth of DER cells (Recombinant HB-EGF [1]) [nM] | DER cell assay ID50 (Recombinant HB-EGF [2]) [nM] | DER cell assay Relative values (relative to CRM197) (Recombinant HB-EGF [2]) | Relative values (KA, against CRM197) (relative to CRM197) [3] |
| --- | --- | --- | --- | --- | --- |
| CRM197 (from UniProt P00587 26-560) | 1.2 | 1.2 | 1.02 | 1 | 1 |
| MBP-R (D507N) (from UniProt P00587 405-560) | – | 4.5 | – | – | – |
| MBP-R (H520K) (from UniProt P00587 405-560) | – | 6 | – | – | – |
| MBP-R (V468T) (from UniProt P00587 405-560) | – | 6.2 | – | – | – |
